Measured values published in paper PMC4906247, “Death-Associated Protein Kinase Activity Is Regulated by Coupled Calcium/Calmodulin Binding to Two Distinct Sites” (Structure(London, England:1993), 2016).

B1: human death-associated protein kinase 3, catalytic domain (hDAPK3 CD, residues 1-274) (domain or fragment, UniProt O43293 1-274, looked up)
chain: MSTFRQEDVEDHYEMGEELGSGQFAIVRKCRQKGTGKEYAAKFIKKRRLSSSRRGVSREEIEREVNILREIRHPNIITLHDIFENKTDVVLILELVSGGELFDFLAEKESLTEDEATQFLKQILDGVHYLHSKRIAHFDLKPENIMLLDKNVPNPRIKLIDFGIAHKIEAGNEFKNIFGTPEFVAPEIVNYEPLGLEADMWSIGVITYILLSGASPFLGETKQETLTNISAVNYDFDEEYFSNTSELAKDFIRRLLVKDPKRRMTIAQSLEHSW
notes: death-associated protein kinase 3, human, CD, residues 1-274; Dimer in the crystal; also called hDAPK3 CD construct; source: E. coli Rosetta (DE3) pLysS, purified (glutathione Sepharose, TEV cleavage, SEC); not shown: GST, N-terminal, cleaved
B2: human death-associated protein kinase 1, catalytic domain and most of the autoregulatory domain (hDAPK1 CD + ARD, residues 1-312) (domain or fragment, UniProt P53355 1-312, looked up)
chain: MTVFRQENVDDYYDTGEELGSGQFAVVKKCREKSTGLQYAAKFIKKRRTKSSRRGVSREDIEREVSILKEIQHPNVITLHEVYENKTDVILILELVAGGELFDFLAEKESLTEEEATEFLKQILNGVYYLHSLQIAHFDLKPENIMLLDRNVPKPRIKIIDFGLAHKIDFGNEFKNIFGTPEFVAPEIVNYEPLGLEADMWSIGVITYILLSGASPFLGDTKQETLANVSAVNYEFEDEYFSNTSALAKDFIRRLLVKDPKKRMTIQDSLQHPWIKPKDTQQALSRKASAVNMEKFKKFAARKKWKQSVRLI
notes: death-associated protein kinase 1, human, CD and most of the ARD, residues 1-312; Dimer in the crystal; also called hDAPK1 CD + ARD construct (1-312); source: E. coli BL21(DE3), purified (Ni-NTA, TEV cleavage, SEC); not shown: His6, N-terminal, cleaved

Molecular target: the molecule itself
Test: crystal structure; hDAPK1 CD + ARD (2.0 Å), hDAPK2 CD + ARD (1.47 Å) and hDAPK3 CD (3.1 Å) crystallised by vapor diffusion; homodimers in the crystals

Protein | binding result
B1 | binds
B2 | binds
